According to patent US20150132310A1:

Tests used:
[1] = target: human recombinant CD11b I domain (N-terminal 6x-His, C-terminal 6x-glycine linker and 3x-Flag) (human) (UniProt P11215); assay: SPR
[2] = target: human CD11b (Integrin alpha-M), full length (human) (UniProt P11215); assay: cell-based or functional assay
[3] = target: human recombinant Mac-1 (CD11b/CD18, integrin alphaM/beta2), R&D Systems (human) (UniProt P05107); assay: SPR (Biacore T100), Mac-1 immobilised on CM5 chip, LukAB as analyte, multi cycle kinetics
[4] = target: 6-phosphogluconate dehydrogenase (human) (UniProt P52209); assay: His-LukAB pull-down from solubilised primary human PMNs on nickel resin, mass spectrometry
[5] = target: ATP synthase subunit beta (human) (UniProt P06576); assay: as above
[6] = target: Actin (human) (UniProt P63261); assay: as above
[7] = target: Adenylyl cyclase-associated protein (human) (UniProt B2RDY9); assay: as above
[8] = target: Adipocyte plasma membrane-associated protein (human) (UniProt Q9HDC9); assay: as above
Sequence of UniProt Q9HDC9 (Q9HDC9 2-416 limits assumed): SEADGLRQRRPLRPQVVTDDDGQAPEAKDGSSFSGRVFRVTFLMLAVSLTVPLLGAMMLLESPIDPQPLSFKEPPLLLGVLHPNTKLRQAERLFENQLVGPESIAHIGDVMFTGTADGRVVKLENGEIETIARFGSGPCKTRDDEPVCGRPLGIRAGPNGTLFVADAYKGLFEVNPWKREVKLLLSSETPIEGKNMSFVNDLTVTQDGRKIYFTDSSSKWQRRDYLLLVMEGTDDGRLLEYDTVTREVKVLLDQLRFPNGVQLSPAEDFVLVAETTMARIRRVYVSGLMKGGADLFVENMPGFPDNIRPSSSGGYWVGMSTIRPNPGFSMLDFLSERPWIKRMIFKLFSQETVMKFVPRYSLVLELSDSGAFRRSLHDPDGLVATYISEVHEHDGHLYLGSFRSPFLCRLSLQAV

[9] = target: Alpha-actinin-1 (human) (UniProt P12814); assay: as above
[10] = target: Alpha-enolase (human) (UniProt P06733); assay: as above
Sequence of UniProt P06733 (P06733 2-434 limits assumed): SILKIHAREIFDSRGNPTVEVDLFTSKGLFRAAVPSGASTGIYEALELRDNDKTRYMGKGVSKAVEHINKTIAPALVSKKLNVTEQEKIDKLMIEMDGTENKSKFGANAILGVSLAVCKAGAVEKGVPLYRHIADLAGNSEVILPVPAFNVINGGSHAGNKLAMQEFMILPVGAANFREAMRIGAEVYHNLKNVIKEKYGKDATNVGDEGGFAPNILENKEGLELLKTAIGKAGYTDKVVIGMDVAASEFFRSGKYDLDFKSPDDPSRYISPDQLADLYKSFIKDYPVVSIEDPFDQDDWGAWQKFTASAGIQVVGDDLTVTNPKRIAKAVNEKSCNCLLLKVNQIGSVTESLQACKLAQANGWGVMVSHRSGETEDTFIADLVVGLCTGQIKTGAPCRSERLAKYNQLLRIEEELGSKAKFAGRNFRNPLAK

[11] = target: Bactericidal permeability-increasing protein (human) (UniProt P17213); assay: as above
Sequence of UniProt P17213 (P17213 32-487 limits assumed): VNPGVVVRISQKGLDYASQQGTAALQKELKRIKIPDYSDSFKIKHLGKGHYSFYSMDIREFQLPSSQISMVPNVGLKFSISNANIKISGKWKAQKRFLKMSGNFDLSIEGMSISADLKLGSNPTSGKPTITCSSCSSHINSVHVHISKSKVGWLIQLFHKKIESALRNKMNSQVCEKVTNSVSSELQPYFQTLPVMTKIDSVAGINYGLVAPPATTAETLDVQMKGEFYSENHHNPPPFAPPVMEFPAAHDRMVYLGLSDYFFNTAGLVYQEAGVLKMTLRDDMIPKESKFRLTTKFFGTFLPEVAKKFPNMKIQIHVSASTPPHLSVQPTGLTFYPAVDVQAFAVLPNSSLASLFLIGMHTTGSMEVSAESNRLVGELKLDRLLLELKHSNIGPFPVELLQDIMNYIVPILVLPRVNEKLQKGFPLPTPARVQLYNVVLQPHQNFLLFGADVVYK

[12] = target: Beta-adrenergic receptor kinase 1 (human) (UniProt P25098); assay: as above
[13] = target: CD63 antigen (human) (UniProt P08962); assay: as above
Sequence of UniProt P08962 (P08962 2-238 limits assumed): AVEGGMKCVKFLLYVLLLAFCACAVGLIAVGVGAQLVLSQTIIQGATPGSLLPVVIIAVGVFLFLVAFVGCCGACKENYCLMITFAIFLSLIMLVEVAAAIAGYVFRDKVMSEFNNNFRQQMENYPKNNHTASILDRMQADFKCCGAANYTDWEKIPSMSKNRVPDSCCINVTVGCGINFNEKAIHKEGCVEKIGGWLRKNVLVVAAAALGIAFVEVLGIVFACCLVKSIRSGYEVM

[14] = target: Catalase (human) (UniProt P04040); assay: as above
[15] = target: Cntm_P13645 (UniProt P13645); assay: as above
[16] = target: Coronin-1A (human) (UniProt P31146); assay: as above
[17] = target: E3 ubiquitin-protein ligase CBL (human) (UniProt P22681); assay: as above
[18] = target: Endoplasmic reticulum resident protein ERp44 (human) (UniProt Q9BS26); assay: as above
[19] = target: Glucose-6-phosphate isomerase (human) (UniProt P06744); assay: as above
[20] = target: Glyceraldehyde-3-phosphate dehydrogenase (human) (UniProt P04406); assay: as above
[21] = target: Guanine nucleotide-binding protein G(i) (human) (UniProt P04899); assay: as above
[22] = target: Heat shock 70kDa protein 1A (human) (UniProt A8K5I0); assay: as above
[23] = target: Hemoglobin subunit alpha (human) (UniProt P69905); assay: as above
Sequence of UniProt P69905 (P69905 2-142 limits assumed): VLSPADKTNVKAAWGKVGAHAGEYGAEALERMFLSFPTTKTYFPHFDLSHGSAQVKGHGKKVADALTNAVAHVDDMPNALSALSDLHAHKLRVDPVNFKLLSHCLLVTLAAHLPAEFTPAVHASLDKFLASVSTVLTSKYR

[24] = target: Hemoglobin subunit beta (human) (UniProt P68871); assay: as above
Sequence of UniProt P68871 (P68871 2-147 limits assumed): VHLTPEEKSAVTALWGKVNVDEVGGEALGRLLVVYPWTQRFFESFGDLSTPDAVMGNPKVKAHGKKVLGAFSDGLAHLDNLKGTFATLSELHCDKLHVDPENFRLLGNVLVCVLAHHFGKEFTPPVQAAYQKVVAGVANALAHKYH

[25] = target: Malic enzyme (human) (UniProt P23368); assay: as above
[26] = target: Mitogen-activated protein kinase 1 (human) (UniProt P28482); assay: as above
Sequence of UniProt P28482 (P28482 2-360 limits assumed): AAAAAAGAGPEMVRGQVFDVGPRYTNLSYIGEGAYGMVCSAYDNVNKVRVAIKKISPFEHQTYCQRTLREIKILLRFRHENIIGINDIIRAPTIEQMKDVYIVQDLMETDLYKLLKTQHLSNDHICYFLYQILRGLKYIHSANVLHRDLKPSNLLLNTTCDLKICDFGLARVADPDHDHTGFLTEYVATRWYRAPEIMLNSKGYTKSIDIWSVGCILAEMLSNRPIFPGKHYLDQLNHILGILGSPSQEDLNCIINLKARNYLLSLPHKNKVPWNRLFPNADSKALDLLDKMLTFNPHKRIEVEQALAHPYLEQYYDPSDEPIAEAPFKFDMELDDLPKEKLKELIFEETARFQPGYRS

[27] = target: Myeloperoxidase (human) (UniProt P05164); assay: as above
Sequence of UniProt P05164 (P05164 165-745 limits assumed): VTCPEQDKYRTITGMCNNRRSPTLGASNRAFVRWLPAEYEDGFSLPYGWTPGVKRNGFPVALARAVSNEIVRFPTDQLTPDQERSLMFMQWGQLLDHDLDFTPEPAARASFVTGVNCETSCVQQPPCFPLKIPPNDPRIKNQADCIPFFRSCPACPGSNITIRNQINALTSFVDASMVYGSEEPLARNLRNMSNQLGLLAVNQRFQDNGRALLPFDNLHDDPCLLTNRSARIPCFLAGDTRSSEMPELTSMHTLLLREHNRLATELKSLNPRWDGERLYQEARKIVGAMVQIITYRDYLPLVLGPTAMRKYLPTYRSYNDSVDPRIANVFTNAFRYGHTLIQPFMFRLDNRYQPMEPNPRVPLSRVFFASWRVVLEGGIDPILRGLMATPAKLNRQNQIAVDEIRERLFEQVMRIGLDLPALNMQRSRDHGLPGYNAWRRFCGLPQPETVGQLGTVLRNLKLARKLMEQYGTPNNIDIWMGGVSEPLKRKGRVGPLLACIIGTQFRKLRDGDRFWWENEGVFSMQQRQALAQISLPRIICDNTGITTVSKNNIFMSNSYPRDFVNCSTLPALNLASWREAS

[28] = target: Myosin-9 (human) (UniProt P35579); assay: as above
[29] = target: Peptidoglycan recognition protein (human) (UniProt O75594); assay: as above
Sequence of UniProt O75594 (O75594 22-196 limits assumed): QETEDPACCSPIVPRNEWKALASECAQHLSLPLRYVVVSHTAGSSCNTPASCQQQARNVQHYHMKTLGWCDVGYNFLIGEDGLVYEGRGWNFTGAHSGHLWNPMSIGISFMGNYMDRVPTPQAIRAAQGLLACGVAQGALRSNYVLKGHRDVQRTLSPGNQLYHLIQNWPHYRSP

[30] = target: Plastin-2 (human) (UniProt P13796); assay: as above
[31] = target: Protein S100-A8 (human) (UniProt P05109); assay: as above
[32] = target: Protein tyrosine phosphatase (human) (UniProt P08575); assay: as above
[33] = target: Putative uncharacterized protein LCN2 (human) (UniProt P80188); assay: as above
Sequence of UniProt P80188 (P80188 21-198 limits assumed): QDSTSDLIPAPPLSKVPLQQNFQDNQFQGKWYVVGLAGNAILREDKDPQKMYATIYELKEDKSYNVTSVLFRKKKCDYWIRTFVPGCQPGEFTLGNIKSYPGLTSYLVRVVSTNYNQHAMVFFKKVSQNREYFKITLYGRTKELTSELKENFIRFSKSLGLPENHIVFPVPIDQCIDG

[34] = target: Pyruvate kinase isozymes M1/M2 (human) (UniProt P14618); assay: as above
[35] = target: SFPQ protein (human); assay: as above
Sequence of SFPQ protein (human) (P23246 whole entry): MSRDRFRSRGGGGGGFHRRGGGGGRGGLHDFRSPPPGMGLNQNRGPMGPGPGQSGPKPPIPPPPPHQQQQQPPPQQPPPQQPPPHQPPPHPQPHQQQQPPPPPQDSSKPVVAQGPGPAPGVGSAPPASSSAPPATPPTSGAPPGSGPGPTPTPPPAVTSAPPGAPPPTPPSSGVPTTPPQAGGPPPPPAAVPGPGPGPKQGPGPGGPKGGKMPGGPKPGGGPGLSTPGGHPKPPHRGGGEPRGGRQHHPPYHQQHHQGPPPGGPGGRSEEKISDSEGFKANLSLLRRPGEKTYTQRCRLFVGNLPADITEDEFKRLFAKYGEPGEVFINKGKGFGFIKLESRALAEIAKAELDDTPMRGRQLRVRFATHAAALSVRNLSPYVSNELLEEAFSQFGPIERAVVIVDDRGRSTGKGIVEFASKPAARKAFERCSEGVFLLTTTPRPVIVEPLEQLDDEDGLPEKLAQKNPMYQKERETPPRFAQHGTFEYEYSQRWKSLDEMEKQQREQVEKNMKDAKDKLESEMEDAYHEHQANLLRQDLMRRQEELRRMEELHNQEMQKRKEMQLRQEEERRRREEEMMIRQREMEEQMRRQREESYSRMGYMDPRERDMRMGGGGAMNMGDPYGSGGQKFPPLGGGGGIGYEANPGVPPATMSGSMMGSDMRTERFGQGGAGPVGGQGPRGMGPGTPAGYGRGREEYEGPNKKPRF

[36] = target: Serum albumin (human) (UniProt P02768); assay: as above
[37] = target: Transketolase (human) (UniProt P29401); assay: as above
Sequence of UniProt P29401 (P29401 whole entry): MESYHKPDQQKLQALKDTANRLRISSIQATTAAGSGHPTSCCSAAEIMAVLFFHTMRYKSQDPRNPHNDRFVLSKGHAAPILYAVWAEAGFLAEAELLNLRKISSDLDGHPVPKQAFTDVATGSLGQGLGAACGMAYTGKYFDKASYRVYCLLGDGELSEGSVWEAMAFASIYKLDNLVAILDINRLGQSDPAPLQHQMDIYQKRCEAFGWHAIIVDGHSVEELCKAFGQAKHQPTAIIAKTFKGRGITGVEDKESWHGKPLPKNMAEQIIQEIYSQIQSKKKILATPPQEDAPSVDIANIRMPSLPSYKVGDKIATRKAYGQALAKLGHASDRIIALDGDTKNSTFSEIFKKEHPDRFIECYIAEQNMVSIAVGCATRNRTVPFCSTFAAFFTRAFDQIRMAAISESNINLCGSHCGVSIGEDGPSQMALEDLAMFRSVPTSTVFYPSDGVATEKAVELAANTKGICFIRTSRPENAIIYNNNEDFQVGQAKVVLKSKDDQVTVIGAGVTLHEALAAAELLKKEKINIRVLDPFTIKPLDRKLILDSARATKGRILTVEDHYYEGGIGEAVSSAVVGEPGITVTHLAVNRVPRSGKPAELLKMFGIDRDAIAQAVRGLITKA

[38] = target: cDNA FLJ53963 (human); assay: as above
[39] = target: cDNA FLJ55493 (human) (UniProt B4DMF5); assay: as above
[40] = target: cDNA FLJ55635 (human); assay: as above
[41] = target: cDNA FLJ75120 (human) (UniProt Q99536); assay: as above
Sequence of UniProt Q99536 (Q99536 2-393): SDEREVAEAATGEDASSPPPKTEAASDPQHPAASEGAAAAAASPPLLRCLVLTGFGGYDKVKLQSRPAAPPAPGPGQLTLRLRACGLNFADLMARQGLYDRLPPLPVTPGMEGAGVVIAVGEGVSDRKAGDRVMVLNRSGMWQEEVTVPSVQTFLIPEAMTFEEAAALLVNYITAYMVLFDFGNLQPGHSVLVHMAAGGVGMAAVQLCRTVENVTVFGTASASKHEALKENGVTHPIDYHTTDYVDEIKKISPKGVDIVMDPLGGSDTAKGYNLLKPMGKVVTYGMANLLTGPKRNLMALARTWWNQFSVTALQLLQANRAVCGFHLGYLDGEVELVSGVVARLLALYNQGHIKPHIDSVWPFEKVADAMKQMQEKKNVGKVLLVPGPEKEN

[42] = target: cDNA FLJ76817 (human); assay: as above
[43] = target: cDNA FLJ78440 (human) (UniProt A8K494); assay: as above
[44] = target: cDNA, FLJ92148 (human) (UniProt B2R4M6); assay: as above
[45] = target: human CD11b (Integrin alpha-M), full length (human) (UniProt P11215); assay: as above
[46] = target: human CD18 (Integrin beta 2) (human); assay: as above
[47] = target: human recombinant CD11b I domain (N-terminal 6x-His, C-terminal 6x-glycine linker and 3x-Flag) (human) (UniProt P11215); assay: SPR (Biacore T100), human I domain immobilised on CM5 chip, LukAB as analyte, multi cycle kinetics

**Q.** With “His-tagged LukAB (leukotoxin AB, purified recombinant from S. aureus Newman)” as the substance, how does the difference in Kd against the LukAB-murine CD11b I-domain interaction [1] read?
**A.** 8 to 9 logs

**Q.** And the percent depletion of CD11b+ HEK293T cells (CD11b transfected), 40 µg/ml LukAB, 2 hours, flow cytometry [2]?
**A.** 80 to 90%

**Q.** And the Kd [3]?
**A.** 38.4 nM

**Q.** And the # of peptides [4]?
**A.** 3 peptides

**Q.** And the # of peptides [5]?
**A.** 5 peptides

**Q.** And the # of peptides [6]?
**A.** 7 peptides

**Q.** What about the # of peptides [7] of the same substance?
**A.** 4 peptides

**Q.** And the # of peptides [8]?
**A.** 5 peptides

**Q.** What about the # of peptides [9] of the same substance?
**A.** 3 peptides

**Q.** What about the # of peptides [10] of the same substance?
**A.** 3 peptides

**Q.** And the # of peptides [11]?
**A.** 6 peptides

**Q.** And the # of peptides [12]?
**A.** 3 peptides

**Q.** What about the # of peptides [13] of the same substance?
**A.** 3 peptides

**Q.** And the # of peptides [14]?
**A.** 3 peptides

**Q.** What about the # of peptides [15] of the same substance?
**A.** 10 peptides

**Q.** And the # of peptides [16]?
**A.** 6 peptides

**Q.** And the # of peptides [17]?
**A.** 3 peptides

**Q.** And the # of peptides [18]?
**A.** 4 peptides

**Q.** And the # of peptides [19]?
**A.** 3 peptides

**Q.** And the # of peptides [20]?
**A.** 6 peptides

**Q.** And the # of peptides [21]?
**A.** 3 peptides

**Q.** And the # of peptides [22]?
**A.** 5 peptides

**Q.** And the # of peptides [23]?
**A.** 4 peptides

**Q.** What about the # of peptides [24] of the same substance?
**A.** 5 peptides

**Q.** What about the # of peptides [25] of the same substance?
**A.** 5 peptides

**Q.** And the # of peptides [26]?
**A.** 5 peptides

**Q.** And the # of peptides [27]?
**A.** 7 peptides

**Q.** What about the # of peptides [28] of the same substance?
**A.** 3 peptides

**Q.** What about the # of peptides [29] of the same substance?
**A.** 4 peptides

**Q.** And the # of peptides [30]?
**A.** 8 peptides

**Q.** What about the # of peptides [31] of the same substance?
**A.** 5 peptides

**Q.** What about the # of peptides [32] of the same substance?
**A.** 3 peptides

**Q.** What about the # of peptides [33] of the same substance?
**A.** 5 peptides

**Q.** And the # of peptides [34]?
**A.** 9 peptides

**Q.** And the # of peptides [35]?
**A.** 4 peptides

**Q.** And the # of peptides [36]?
**A.** 13 peptides

**Q.** And the # of peptides [37]?
**A.** 4 peptides

**Q.** And the # of peptides [38]?
**A.** 3 peptides

**Q.** What about the # of peptides [39] of the same substance?
**A.** 5 peptides

**Q.** What about the # of peptides [40] of the same substance?
**A.** 7 peptides

**Q.** And the # of peptides [41]?
**A.** 5 peptides

**Q.** And the # of peptides [42]?
**A.** 3 peptides

**Q.** What about the # of peptides [43] of the same substance?
**A.** 8 peptides

**Q.** What about the # of peptides [44] of the same substance?
**A.** 4 peptides

**Q.** And the # of peptides [45]?
**A.** 17 peptides

**Q.** And the # of peptides [46]?
**A.** 12 peptides

**Q.** What about the Kd [47] of the same substance?
**A.** 1.92 nM
